The results in this text go back to patent US20150344570A1 (published 2015).

The target of experiment [1] is T1, FcγRIa (human, UniProt P12314 16-292).
T1 construct: extracellular domain; soluble His-tagged extracellular domain expressed in FreeStyle293 cells, used as analyte in Biacore; also called FcgRI; CD64
Briefly: SPR (Biacore), captured antibody, FcγRIa analyte; relative to GpH7-B3/GpL16-k0.

Experiment [2] has as its target T1, FcγRIa. Kind of experiment: SPR (Biacore), captured antibody, FcγRIa analyte; relative to GpH7-A5/GpH7-B3/GpL16-k0.

T1 sequence (P12314 16-292): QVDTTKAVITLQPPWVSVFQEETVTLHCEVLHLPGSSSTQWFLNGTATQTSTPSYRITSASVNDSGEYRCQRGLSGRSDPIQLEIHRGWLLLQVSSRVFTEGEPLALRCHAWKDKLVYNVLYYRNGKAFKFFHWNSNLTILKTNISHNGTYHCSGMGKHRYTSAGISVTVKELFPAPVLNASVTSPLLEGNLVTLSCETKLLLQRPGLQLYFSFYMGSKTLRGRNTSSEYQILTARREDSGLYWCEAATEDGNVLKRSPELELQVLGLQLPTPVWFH

B1: GpH7-B3 variant Y300_14T/GpL16-k0 (antibody, human IgG1, kappa)
heavy: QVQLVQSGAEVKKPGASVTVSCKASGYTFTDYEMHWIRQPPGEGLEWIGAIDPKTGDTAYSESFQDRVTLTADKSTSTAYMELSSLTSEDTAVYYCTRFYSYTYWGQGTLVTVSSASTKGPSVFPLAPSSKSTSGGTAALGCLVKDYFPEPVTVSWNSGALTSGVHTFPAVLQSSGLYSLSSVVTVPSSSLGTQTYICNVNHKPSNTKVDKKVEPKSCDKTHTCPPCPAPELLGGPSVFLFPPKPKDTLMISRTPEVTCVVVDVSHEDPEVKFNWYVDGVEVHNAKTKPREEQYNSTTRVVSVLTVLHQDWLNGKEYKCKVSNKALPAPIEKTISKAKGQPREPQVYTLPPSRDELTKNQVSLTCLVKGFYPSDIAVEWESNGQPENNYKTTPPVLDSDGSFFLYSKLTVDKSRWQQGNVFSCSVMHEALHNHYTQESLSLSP
light: DIVMTQSPLSLPVTPGEPASISCQASESLVHSNRNTYLHWYLQKPGQSPQLLIYKVSNRFSGVPDRFSGSGSGTDFTLKISRVEAEDVGVYYCSQNTHVPPTFGQGTKVEIERTVAAPSVFIFPPSDEQLKSGTASVVCLLNNFYPREAKVQWKVDNALQSGNSQESVTEQDSKDSTYSLSSTLTLSKADYEKHKVYACEVTHQGLSSPVTKSFNRGEC
notes: homodimerized IgG1, mutation in both H chains; also called Ho Ab
In the case of B1, the Ho/Con_1a with FcγRIa [1] was 110 relative, control = 100.

B2: GpH7-A5/GpH7-B3 variant T335_04F/GpL16-k0 (antibody, human IgG1, kappa)
heavy 1: not shown
heavy 2: not shown
light: DIVMTQSPLSLPVTPGEPASISCQASESLVHSNRNTYLHWYLQKPGQSPQLLIYKVSNRFSGVPDRFSGSGSGTDFTLKISRVEAEDVGVYYCSQNTHVPPTFGQGTKVEIERTVAAPSVFIFPPSDEQLKSGTASVVCLLNNFYPREAKVQWKVDNALQSGNSQESVTEQDSKDSTYSLSSTLTLSKADYEKHKVYACEVTHQGLSSPVTKSFNRGEC
notes: heterodimerized IgG1, mutation in one H chain only; also called He Ab
Consider B2, for which, in the experiment with FcγRIa [2], the He/Con_1a is 105 relative, control = 100.

B3: GpH7-A5/GpH7-B3 variant A330_04F/GpL16-k0 (antibody, human IgG1, kappa)
heavy 1: not shown
heavy 2: not shown
light: DIVMTQSPLSLPVTPGEPASISCQASESLVHSNRNTYLHWYLQKPGQSPQLLIYKVSNRFSGVPDRFSGSGSGTDFTLKISRVEAEDVGVYYCSQNTHVPPTFGQGTKVEIERTVAAPSVFIFPPSDEQLKSGTASVVCLLNNFYPREAKVQWKVDNALQSGNSQESVTEQDSKDSTYSLSSTLTLSKADYEKHKVYACEVTHQGLSSPVTKSFNRGEC
notes: as for B2
As to B3, the He/Con_1a with FcγRIa [2] was 106 relative, control = 100.

B4: GpH7-A5/GpH7-B3 variant H268_01G/GpL16-k0 (antibody, human IgG1, kappa)
heavy 1: not shown
heavy 2: not shown
light: DIVMTQSPLSLPVTPGEPASISCQASESLVHSNRNTYLHWYLQKPGQSPQLLIYKVSNRFSGVPDRFSGSGSGTDFTLKISRVEAEDVGVYYCSQNTHVPPTFGQGTKVEIERTVAAPSVFIFPPSDEQLKSGTASVVCLLNNFYPREAKVQWKVDNALQSGNSQESVTEQDSKDSTYSLSSTLTLSKADYEKHKVYACEVTHQGLSSPVTKSFNRGEC
notes: as for B2
Regarding B4, the He/Con_1a with FcγRIa [2] was 107 relative, control = 100.

B5: GpH7-A5/GpH7-B3 variant I336_12R/GpL16-k0 (antibody, human IgG1, kappa)
heavy 1: not shown
heavy 2: not shown
light: DIVMTQSPLSLPVTPGEPASISCQASESLVHSNRNTYLHWYLQKPGQSPQLLIYKVSNRFSGVPDRFSGSGSGTDFTLKISRVEAEDVGVYYCSQNTHVPPTFGQGTKVEIERTVAAPSVFIFPPSDEQLKSGTASVVCLLNNFYPREAKVQWKVDNALQSGNSQESVTEQDSKDSTYSLSSTLTLSKADYEKHKVYACEVTHQGLSSPVTKSFNRGEC
notes: as for B2
With B5, in the experiment with FcγRIa [2], the He/Con_1a is 102 relative, control = 100.

B6: GpH7-A5/GpH7-B3 variant A330_01G/GpL16-k0 (antibody, human IgG1, kappa)
heavy 1: not shown
heavy 2: not shown
light: DIVMTQSPLSLPVTPGEPASISCQASESLVHSNRNTYLHWYLQKPGQSPQLLIYKVSNRFSGVPDRFSGSGSGTDFTLKISRVEAEDVGVYYCSQNTHVPPTFGQGTKVEIERTVAAPSVFIFPPSDEQLKSGTASVVCLLNNFYPREAKVQWKVDNALQSGNSQESVTEQDSKDSTYSLSSTLTLSKADYEKHKVYACEVTHQGLSSPVTKSFNRGEC
notes: as for B2
In the case of B6, the He/Con_1a with FcγRIa [2] was 106 relative, control = 100.

B7: GpH7-A5/GpH7-B3 variant I336_09D/GpL16-k0 (antibody, human IgG1, kappa)
heavy 1: not shown
heavy 2: not shown
light: DIVMTQSPLSLPVTPGEPASISCQASESLVHSNRNTYLHWYLQKPGQSPQLLIYKVSNRFSGVPDRFSGSGSGTDFTLKISRVEAEDVGVYYCSQNTHVPPTFGQGTKVEIERTVAAPSVFIFPPSDEQLKSGTASVVCLLNNFYPREAKVQWKVDNALQSGNSQESVTEQDSKDSTYSLSSTLTLSKADYEKHKVYACEVTHQGLSSPVTKSFNRGEC
notes: as for B2
With B7, in the experiment with FcγRIa [2], the He/Con_1a was 104 relative, control = 100.

B8: GpH7-A5/GpH7-B3 variant I336_11K/GpL16-k0 (antibody, human IgG1, kappa)
heavy 1: not shown
heavy 2: not shown
light: DIVMTQSPLSLPVTPGEPASISCQASESLVHSNRNTYLHWYLQKPGQSPQLLIYKVSNRFSGVPDRFSGSGSGTDFTLKISRVEAEDVGVYYCSQNTHVPPTFGQGTKVEIERTVAAPSVFIFPPSDEQLKSGTASVVCLLNNFYPREAKVQWKVDNALQSGNSQESVTEQDSKDSTYSLSSTLTLSKADYEKHKVYACEVTHQGLSSPVTKSFNRGEC
notes: as for B2
For the molecule B8, the He/Con_1a with FcγRIa [2] was 105 relative, control = 100.

B9: GpH7-A5/GpH7-B3 variant A330_10E/GpL16-k0 (antibody, human IgG1, kappa)
heavy 1: not shown
heavy 2: not shown
light: DIVMTQSPLSLPVTPGEPASISCQASESLVHSNRNTYLHWYLQKPGQSPQLLIYKVSNRFSGVPDRFSGSGSGTDFTLKISRVEAEDVGVYYCSQNTHVPPTFGQGTKVEIERTVAAPSVFIFPPSDEQLKSGTASVVCLLNNFYPREAKVQWKVDNALQSGNSQESVTEQDSKDSTYSLSSTLTLSKADYEKHKVYACEVTHQGLSSPVTKSFNRGEC
notes: as for B2
Regarding B9, the He/Con_1a in the experiment with FcγRIa [2] was 107 relative, control = 100.

B10: GpH7-A5/GpH7-B3 variant H268_13S/GpL16-k0 (antibody, human IgG1, kappa)
heavy 1: not shown
heavy 2: not shown
light: DIVMTQSPLSLPVTPGEPASISCQASESLVHSNRNTYLHWYLQKPGQSPQLLIYKVSNRFSGVPDRFSGSGSGTDFTLKISRVEAEDVGVYYCSQNTHVPPTFGQGTKVEIERTVAAPSVFIFPPSDEQLKSGTASVVCLLNNFYPREAKVQWKVDNALQSGNSQESVTEQDSKDSTYSLSSTLTLSKADYEKHKVYACEVTHQGLSSPVTKSFNRGEC
notes: as for B2
For the molecule B10, the He/Con_1a in the experiment with FcγRIa [2] was 109 relative, control = 100.
